Target: BTN3A1 full intracellular domain (BFI) (Homo sapiens, UniProt O00481)
Assay: ITC

BTN3A1 full intracellular domain (BFI), sequence (O00481 272-513): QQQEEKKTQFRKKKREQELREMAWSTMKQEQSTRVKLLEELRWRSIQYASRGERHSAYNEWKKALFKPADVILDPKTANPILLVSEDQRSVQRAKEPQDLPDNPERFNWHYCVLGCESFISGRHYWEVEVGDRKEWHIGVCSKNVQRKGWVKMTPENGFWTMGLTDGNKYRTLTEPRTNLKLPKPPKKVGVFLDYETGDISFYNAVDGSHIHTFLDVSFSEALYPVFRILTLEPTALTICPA

Kd [µM]	Binder
0.78	BTN2A1 ID271 (protein, HMBPP) KLQKEKKILSGEKEFERETREIALKELEKERVQKEEELQVKEKLQEELRWRRTFLHAVDVVLDPDTAHPDLFLSEDRRSVRRCPFRHLGESVPDNPERFDSQPCVLGRESFASGKHYWEVEVENVIEWTVGVCRDSVERKGEVLLIPQNGFWTLEMHKGQYRAVSSPDRILPLKESLCRVGVFLDYEAGDVSFYNMRDRSHIYTCPRSAFSVPVRPFFRLGCEDSPIFICPALTGANGVTVPEEGLTLHRVGTHQSL
190	BTN2A1 ID271 (protein, 4-M-HMBPP) KLQKEKKILSGEKEFERETREIALKELEKERVQKEEELQVKEKLQEELRWRRTFLHAVDVVLDPDTAHPDLFLSEDRRSVRRCPFRHLGESVPDNPERFDSQPCVLGRESFASGKHYWEVEVENVIEWTVGVCRDSVERKGEVLLIPQNGFWTLEMHKGQYRAVSSPDRILPLKESLCRVGVFLDYEAGDVSFYNMRDRSHIYTCPRSAFSVPVRPFFRLGCEDSPIFICPALTGANGVTVPEEGLTLHRVGTHQSL
